Among the data in patent US20240269194A1 (CITY OF HOPE, published 2024) are Kd values, retold here.

The target in the test is [^68Ga]-DO3A-VS-Cys40-labeled Exendin-4 (UniProt P26349 48-86). In words: saturation binding of the radiolabeled probe on INS-1 cells.

By Kd is commonly meant the equilibrium constant for the complex coming apart. A low value points to higher affinity.

B1: GLP-1R expressed by INS-1 cells (receptor)
chain: GPRPQGATVSLSETVQKWREYRHQCQRFLTEAPLLATGLFCNRTFDDYACWPDGPPGSFVNVSCPWYLPWASSVLQGHVYRFCTAEGIWLHKDNSSLPWRDLSECEESKQGERNSPEEQLLSLYIIYTVGYALSFSALVIASAILVSFRHLHCTRNYIHLNLFASFILRALSVFIKDAALKWMYSTAAQQHQWDGLLSYQDSLGCRLVFLLMQYCVAANYYWLLVEGVYLYTLLAFSVFSEQRIFKLYLSIGWGVPLLFVIPWGIVKYLYEDEGCWTRNSNMNYWLIIRLPILFAIGVNFLVFIRVICIVIAKLKANLMCKTDIKCRLAKSTLTLIPLLGTHEVIFAFVMDEHARGTLRFVKLFTELSFTSFQGFMVAVLYCFVNNEVQMEFRKSWERWRLERLNIQRDSSMKPLKCPTSSVSSGATVGSSVYAATCQNSCS
notes: whole, on cells; Endogenous receptor on INS-1 cells and INS-1 tumors in mice; also called GLP-R1
B1 gave a Kd of 8.6 nM.
